According to paper PMC12631311, “Molecular Insights into IAHSP: Influence of the R1611W Mutation on the VPS9 Domain of Alsin” (ACS Omega, 2025):
Residue numbers refer to the chain shown, from its start. In names and notes the source's numbering stands. Several values for one entry are separate records, joined by “and”; a condition that tells them apart may be missing. Equal entries are not always repeated.

B1: human alsin VPS9 WT (C1551S/C1558S/C1647S) (domain or fragment, UniProt Q96Q42 1513-1657, looked up)
chain: KQPDIALLGFLGVQRKFWPATLSILGESKKVLPTTKDASFASAVESLQQISTTFTPSDKLKVIQQTFEEISQSVLASLHEDFLWSMDDLFPVFLYVVLRARIRNLGSEVHLIEDLMDPYLQHGEQGIMFTTLKASYYQIQREKLN
notes: alsin, human, VPS9 domain, residues 1513-1657 of UniProt Q96Q42, with three Cys to Ser changes in the construct called WT; Cloned in pET28b between NdeI and EcoRI; No cleavage of the tag is described; The N-terminal position is read from the forward primer (thrombin site before the ATG); The printed monomer mass of 16.6 kDa fits the domain without the tag; also called wild-type VPS9 domain
B2: human alsin VPS9 R1611W mutant (domain or fragment, UniProt Q96Q42 1513-1657, looked up)
chain: B1 chain with R99W
notes: alsin, human, VPS9 domain, residues 1513-1657 of UniProt Q96Q42; The pathological R1611W mutation was inserted by site-directed mutagenesis into the VPS9 WT (C1551S/C1558S/C1647S) construct; Same construct and tag as m1 with R1611W added; also called VPS R1611W

Biological target: the molecule itself
Test: SEC; Superdex 200 Increase 10/300 GL, 50 mM potassium phosphate pH 8.0, 150 mM NaCl, 0.5 mL/min, room temperature; 310 ug VPS9 WT or 270 ug VPS9 R1611W injected; apparent molecular weights from column calibration

Protein	stoichiometry N
B1	4
B2	4 and 6
